1 molecule from US10272135B2, “Apolipoprotein O and fragments thereof for inducing apoptosis in a cancerous cell” (INSERM (INSTITUT NATIONAL DE LA SANTÉ ET DE LA RECHERCHE …, priority 2014, dated 2019) can be followed below.

The subject of series [1] is long-chain acyl-CoA synthetase (ACSL). The series can be described thus: Acyl-CoA synthetase activity in cardiac myoblasts. The note with it: ApoO cells vs control (FIG. 6C). The class given is cell-based. From the text:
(§1) After ethical committee approval, all patients in this study gave written consent for sample collection and molecular analysis prior to inclusion. Patients were carefully selected by physicians from the Department of Cardiology, Toulouse University Hospital, prior to coronary by-pass surgery. Bioinformatics. Microarray expression data from human heart samples were downloaded from the GEO repository (GSE1145). This series consisted of 107 myocardial samples collected from patients undergoing cardiac transplantation whose failure arises from different etiologies (e.g. idiopathic dilated cardiomyopathy, ischemic cardiomyopathy, valvular cardiomyopathy, and hypertrophic cardiomyopathy) and from “normal” organ donors whose hearts cannot be used for transplants. Arrays were intensity normalized and hierarchical clustering (average group linkage, Pearson correlation, threshold r=0.8) was applied to identify groups of co-expressed genes. […] All ApoO sequences within the expression vectors were verified by DNA double strand sequencing using ABI PRISM®BigDye™ Terminator version 3.1 Ready reaction cycle sequencing kit (Life Technologies SAS, Villebon sur Yvette) and loaded on an ABI 3130XL DNA sequencing instrument (Life Technologies SAS, Villebon sur Yvette). […]

For a further series, the system named is cytochrome C oxidase. The series can be described thus: Cytochrome C oxidase activity in cardiac myoblasts. The class given is cell-based. The note with it: ApoO cells vs control.
Source text: as §1

The subject of the next series is cardiac myoblasts. Kind of series: Reactive oxygen species assessment (carboxy-DCFDA) in cardiac myoblasts. Conditions: ApoO cells vs control (FIG. 4D). Type of series: cell-based.
Source text: as §1

The next series deals with mouse liver. The series can be described thus: Hydrodynamics-based in vivo transfection of the mouse liver. The source says:
After ethical committee approval, all patients in this study gave written consent for sample collection and molecular analysis prior to inclusion. Patients were carefully selected by physicians from the Department of Cardiology, Toulouse University Hospital, prior to coronary by-pass surgery. Bioinformatics. Microarray expression data from human heart samples were downloaded from the GEO repository (GSE1145). This series consisted of 107 myocardial samples collected from patients undergoing cardiac transplantation whose failure arises from different etiologies (e.g. idiopathic dilated cardiomyopathy, ischemic cardiomyopathy, valvular cardiomyopathy, and hypertrophic cardiomyopathy) and from “normal” organ donors whose hearts cannot be used for transplants. Arrays were intensity normalized and hierarchical clustering (average group linkage, Pearson correlation, threshold r=0.8) was applied to identify groups of co-expressed genes. ApoO expression levels were plotted for the 107 human hearts tested and used to define relevant molecular pathways using both Toppgene and Ingenuity Pathway Analysis (Ingenuity systems, Redwood City, Calif., USA). ApoO subcellular localization was predicted using Mitopred, mitoprot and YLoc. Animals: All animal Studies followed the INSERM Institute Animal Facility guidelines and were approved by the animal care committees of the INSERM I2MC UMR 1048. All animal procedures were performed according to the guidelines of the French Ministry of Agriculture. Animals were housed at the Toulouse I2MC animal facility in a room lit 12 h per day (6 AM-6 PM) at an ambient temperature of 22+/−1° C. Construction of ApoO Expression Vectors To overexpress human ApoO (pTT-ApoO), the ApoO coding sequence was amplified using primers hApoO5BamPTT (SEQ ID NO: 2) and hApoO3BamPTT (SEQ ID NO: 3) and cloned into the BamH1 site of pTT expression vector. pSNAP-ApoO was generated by PCR amplification of pTT-ApoO using primers SnapApoEcorV-F (SEQ ID NO: 4) and SnapApoEcorV-R (SEQ ID NO: 5) and cloned into the EcoRV site of pSNAP-Tag® (Ozyme, Saint-Quentin-en-Yvelines, France). pGEX2T-ApoO was constructed by PCR amplification of pTT-ApoO using hApoOpGEX1FBam (SEQ ID NO: 6) and hApoOpGEX1RSma (SEQ ID NO: 7) and cloned into the Bam HI/Sma I site of pGEX2T (Promega, Charbonnières-les-Bains). All primers used in this work were synthesized by Eurogentec France (Angers). All restriction enzymes used were from New England Biolabs (Ozyme, Saint-Quentin-en-Yvelines). All ApoO sequences within the expression vectors were verified by DNA double strand sequencing using ABI PRISM®BigDye™ Terminator version 3.1 Ready reaction cycle sequencing kit (Life Technologies SAS, Villebon sur Yvette) and loaded on an ABI 3130XL DNA sequencing instrument (Life Technologies SAS, Villebon sur Yvette). Cell Culture and Tranfection of H9C2 Cardic Myoblasts H9c2 were obtained from the European Collection of Cell Cultures (Salisbury, England). H9c2 cells were cultured in Dulbecco's modified Eagle medium (Life Technologies SAS, Villebon sur Yvette) adjusted to contain 1.5 g/liter sodium bicarbonate and supplemented with antibiotic-antimycotic solution (Life Technologies SAS, Villebon sur Yvette) and 10% fetal bovine serum (FBS, AbCys s.a., Paris). Cells were plated on 10-cm diameter tissue culture dish and grown in a 5% CO2 incubator at 37° C. with saturating humidity with medium changes every 2 days. […]

The next series deals with Caspase-3. Kind of series: Caspase-3 enzymatic activity in H9c2 cardiac myoblasts. Type of series: cell-based. The source says:
After ethical committee approval, all patients in this study gave written consent for sample collection and molecular analysis prior to inclusion. Patients were carefully selected by physicians from the Department of Cardiology, Toulouse University Hospital, prior to coronary by-pass surgery. Bioinformatics. Microarray expression data from human heart samples were downloaded from the GEO repository (GSE1145). This series consisted of 107 myocardial samples collected from patients undergoing cardiac transplantation whose failure arises from different etiologies (e.g. idiopathic dilated cardiomyopathy, ischemic cardiomyopathy, valvular cardiomyopathy, and hypertrophic cardiomyopathy) and from “normal” organ donors whose hearts cannot be used for transplants. Arrays were intensity normalized and hierarchical clustering (average group linkage, Pearson correlation, threshold r=0.8) was applied to identify groups of co-expressed genes. ApoO expression levels were plotted for the 107 human hearts tested and used to define relevant molecular pathways using both Toppgene and Ingenuity Pathway Analysis (Ingenuity systems, Redwood City, Calif., USA). ApoO subcellular localization was predicted using Mitopred, mitoprot and YLoc. Animals: All animal Studies followed the INSERM Institute Animal Facility guidelines and were approved by the animal care committees of the INSERM I2MC UMR 1048. All animal procedures were performed according to the guidelines of the French Ministry of Agriculture. Animals were housed at the Toulouse I2MC animal facility in a room lit 12 h per day (6 AM-6 PM) at an ambient temperature of 22+/−1° C. […] All ApoO sequences within the expression vectors were verified by DNA double strand sequencing using ABI PRISM®BigDye™ Terminator version 3.1 Ready reaction cycle sequencing kit (Life Technologies SAS, Villebon sur Yvette) and loaded on an ABI 3130XL DNA sequencing instrument (Life Technologies SAS, Villebon sur Yvette). […]

B1: ApoO: 198-amino acid apolipoprotein, SEQ ID NO: 1; tested by overexpression from expression vectors or transgene (protein, listed as Homo sapiens)
chain: MFKVIQRSVGPASLSLLTFKVYAAPKKDSPPKNSVKVDELSLYSVPEGQSKYVEEARSQLEESISQLRHYCEPYTTWCQETYSQTKPKMQSLVQWGLDSYDYLQNAPPGFFPRLGVIGFAGLIGLLLARGSKIKKLVYPPGFMGLAASLYYPQQAIVFAQVSGERLYDWGLRGYIVIEDLWKENFQKPGNVKNSPGTK
For the molecule B1, the “long-chain acyl-CoA synthetase (ACSL) activity” value in series [1] is given as “strongly increased”. Further, in the series on cytochrome C oxidase, the “cytochrome C oxidase activity” value is recorded as “increase”. Also, the “intracellular reactive oxygen species (ROS)” value with cardiac myoblasts was “increases”. In addition, the “Caspase-3 activity in liver” value in the series with mouse liver (48 hours after transfection (FIG. 9e)) is given as “confirmed”. Besides, the “Bax expression in liver” value in the series on mouse liver (48 hours after transfection (FIG. 9d)) is listed as “confirmed”. In addition, in the series on mouse liver (ApoO transfected liver vs control vector (FIG. 8c)), the “diglyceride levels in liver” value was “increased”. In the series with mouse liver (ApoO transfected liver vs control vector (FIG. 8d)), the “intracellular triglycerides in liver” value is reported as “did not significantly modify”. Moreover, in the series on mouse liver (in vivo transfected mouse liver), the “oxygen consumption of isolated liver mitochondria” value was “significant increase”. Further, the “activity of Caspase-3” value in the series on Caspase-3 (ApoO cells vs control (FIG. 9g)) is given as “increase”. The “apoptotic effect of increasing doses of palmitate (Caspase-3 activity)” value in the series on Caspase-3 (ApoO overexpressing cells vs control (FIG. 9h)) was “dramatically amplified”.
